According to publication PMC9413769:

Target: eGFP-Unr (UniProt O75534)
Test: FRET or BRET

Chain of UniProt O75534 (O75534 whole entry): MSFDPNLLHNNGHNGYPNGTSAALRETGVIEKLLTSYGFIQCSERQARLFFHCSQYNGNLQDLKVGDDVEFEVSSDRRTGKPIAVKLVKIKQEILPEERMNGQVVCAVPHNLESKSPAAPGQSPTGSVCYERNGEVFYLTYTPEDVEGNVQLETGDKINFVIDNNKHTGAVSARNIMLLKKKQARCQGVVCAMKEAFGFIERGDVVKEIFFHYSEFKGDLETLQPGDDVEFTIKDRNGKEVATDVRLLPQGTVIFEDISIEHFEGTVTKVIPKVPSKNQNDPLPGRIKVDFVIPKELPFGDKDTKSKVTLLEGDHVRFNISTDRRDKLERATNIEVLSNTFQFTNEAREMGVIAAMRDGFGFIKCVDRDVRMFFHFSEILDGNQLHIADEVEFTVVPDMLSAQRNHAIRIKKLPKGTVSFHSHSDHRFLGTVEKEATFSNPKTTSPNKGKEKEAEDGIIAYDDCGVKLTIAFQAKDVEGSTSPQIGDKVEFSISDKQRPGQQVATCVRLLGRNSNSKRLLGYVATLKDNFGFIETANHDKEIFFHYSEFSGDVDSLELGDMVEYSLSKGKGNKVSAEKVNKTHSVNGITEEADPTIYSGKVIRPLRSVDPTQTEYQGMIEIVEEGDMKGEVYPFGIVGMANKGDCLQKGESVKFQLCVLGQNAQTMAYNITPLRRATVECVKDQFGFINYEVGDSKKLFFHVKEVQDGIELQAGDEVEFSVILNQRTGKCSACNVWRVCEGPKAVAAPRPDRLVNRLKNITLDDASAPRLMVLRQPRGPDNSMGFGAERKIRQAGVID

Row | Substance | FRET efficiency (one-population analysis) [%] | FRET efficiency of the interacting population (two-population analysis) [%] | percent of eGFP-Unr interacting (two-population analysis) [%] | average FRET efficiency (one-population analysis) [%]
1 | GagG2A-mCherry (natural protein) | 7.5 | 46 | 25 | 
2 | NCp7-mCherry (natural protein) |  | > 35 | 21 | 5.1
3 | mCherry-NCp7 (natural protein) |  | > 35 | 26 | 6.8
